# ± gives the standard error. For part of these data: Fewer inactive variants are shown than the library holds.
# B1: glmS ribozyme (parent)
# chain: AUAAAAGCGCCAGAACUACAGAAAUGUAGUUGACGAGGAGGAGGUUUAUCGAAUUUUCGGCGGAUGCCUCCAAA
# Tests used:
# Settings in all cases: with glucosamine-6-phosphate
# glucosamine-6-phosphate [1] = variants of: B1; experiment: kcat; higher = faster cleavage; RNA array
# Method in brief: (§1)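 Using a hybridised Cy3 probe at 37 °C, barcoded ribozyme variants transcribed in situ by E. coli RNA polymerase on sequenced MiSeq chips were monitored across tiles imaged over ~14 h. The flow contained glucosamine-6-phosphate from 40 μM to 10 mM in HEPES/KCl/Mg(OAc)2 buffer. Signals were normalised to baseline and to non-cleaving reference variants before per-tile medians were fit to one- or two-exponential decays to yield kobs. Weighted Michaelis–Menten fits across concentrations gave kcat and KM.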
# glucosamine-6-phosphate [2] = variants of: B1; experiment: KM; higher = weaker cofactor use; RNA array
# Method in brief: as §1
# glucosamine-6-phosphate [3] = variants of: B1; experiment: self-cleavage kobs at 40 uM GlcN6P; higher = faster cleavage; RNA array
# Method in brief: as §1
# glucosamine-6-phosphate [4] = variants of: B1; experiment: self-cleavage kobs at 160 uM GlcN6P; higher = faster cleavage; RNA array
# Method in brief: as §1
# glucosamine-6-phosphate [5] = variants of: B1; experiment: self-cleavage kobs at 640 uM GlcN6P; higher = faster cleavage; RNA array
# Method in brief: as §1
# glucosamine-6-phosphate [6] = variants of: B1; experiment: self-cleavage kobs at 2500 uM GlcN6P; higher = faster cleavage; RNA array
# Method in brief: as §1
# glucosamine-6-phosphate [7] = variants of: B1; experiment: self-cleavage kobs at 10000 uM GlcN6P; higher = faster cleavage; RNA array
# Method in brief: as §1
Variant,kcat (glucosamine-6-phosphate [1]) [s⁻¹],KM (glucosamine-6-phosphate [2]) [µM],self-cleavage kobs at 40 uM GlcN6P (glucosamine-6-phosphate [3]) [s⁻¹],self-cleavage kobs at 160 uM GlcN6P (glucosamine-6-phosphate [4]) [s⁻¹],self-cleavage kobs at 640 uM GlcN6P (glucosamine-6-phosphate [5]) [s⁻¹],self-cleavage kobs at 2500 uM GlcN6P (glucosamine-6-phosphate [6]) [s⁻¹],self-cleavage kobs at 10000 uM GlcN6P (glucosamine-6-phosphate [7]) [s⁻¹]
A15U C71A,0.000688 ± 4.8e-05,1050 ± 120,3.22e-05 ± 8.9e-06,8.62e-05 ± 8.8e-06,0.000278 ± 3.4e-05,0.000497 ± 6.4e-05,0.000605 ± 7e-05
A15C C70G C71A,4.1e-05 ± 1.4e-05,–,–,4.75e-05 ± 2e-05,6.35e-05 ± 1.7e-05,–,–
A15U U55C,0.00268 ± 0.0003,915 ± 160,0.000117 ± 2.1e-05,0.00039 ± 6.4e-05,0.00136 ± 0.00052,0.00158 ± 0.00036,0.00269 ± 0.00038
A15U G38A C67A C68U,2.38e-05 ± 7.1e-06,–,–,–,–,–,–
A15C U46A,0.000358 ± 0.00016,–,–,–,0.000102 ± 2.1e-05,0.000152 ± 3.8e-05,0.000416 ± 9.4e-05
A15C U46C,0.000304 ± 5.3e-05,1330 ± 520,–,–,0.000119 ± 1.9e-05,0.000176 ± 2.5e-05,0.000295 ± 4.8e-05
A15G A42U,0.000248 ± 4.1e-05,1410 ± 570,–,2.77e-05 ± 1.4e-05,6.62e-05 ± 1.7e-05,0.000216 ± 3.8e-05,0.000203 ± 3e-05
A15G G29U C50G,3.72e-05 ± 6.3e-06,–,–,–,–,5.06e-05 ± 2.4e-05,–
A15U U31A,0.00127 ± 0.00026,2230 ± 880,3.45e-05 ± 7.5e-06,4.67e-05 ± 2e-05,0.000289 ± 5.3e-05,0.000874 ± 0.00015,0.00101 ± 9.8e-05
A15G G32C,0.000278 ± 6.2e-05,8170 ± 3300,–,–,–,6.16e-05 ± 1.6e-05,0.000154 ± 2e-05
A15U A33C,5.35e-05 ± 2.5e-06,813 ± 280,< 1e-05,–,–,4.34e-05 ± 1.3e-05,4.91e-05 ± 6e-06
A15C U30C A52G G63C,< 1e-05,–,–,–,–,–,–
A14U G37U G63U,< 1e-05,–,< 1e-05,–,–,–,–
A15U U31G C71U,0.00048 ± 0.00012,–,6.97e-05 ± 3.1e-05,6.51e-05 ± 1.8e-05,0.000238 ± 3.6e-05,0.000267 ± 6.8e-05,0.000517 ± 9.1e-05
A15U A39C,0.00112 ± 0.00025,1960 ± 980,3.4e-05 ± 6.3e-06,–,0.000287 ± 3.8e-05,0.000499 ± 5.7e-05,0.00102 ± 7.3e-05
A14U G66U,0.000298 ± 3.6e-05,2140 ± 550,–,4.39e-05 ± 1.8e-05,6.34e-05 ± 1.1e-05,0.000175 ± 2.9e-05,0.000243 ± 2.6e-05

Variant,kcat (glucosamine-6-phosphate [1]) [s⁻¹],KM (glucosamine-6-phosphate [2]) [µM],self-cleavage kobs at 40 uM GlcN6P (glucosamine-6-phosphate [3]) [s⁻¹],self-cleavage kobs at 160 uM GlcN6P (glucosamine-6-phosphate [4]) [s⁻¹],self-cleavage kobs at 640 uM GlcN6P (glucosamine-6-phosphate [5]) [s⁻¹],self-cleavage kobs at 2500 uM GlcN6P (glucosamine-6-phosphate [6]) [s⁻¹],self-cleavage kobs at 10000 uM GlcN6P (glucosamine-6-phosphate [7]) [s⁻¹]
A14U G66C,0.000139 ± 1.3e-05,5220 ± 1100,–,–,–,4.36e-05 ± 8e-06,9.18e-05 ± 1e-05
A15C C68G,2.69e-05 ± 6.5e-06,–,–,–,–,3.22e-05 ± 9e-06,–
A14U G59A,6.06e-05 ± 3.3e-06,9990 ± 1000,< 1e-05,< 1e-05,–,–,3.03e-05 ± 1.1e-05
A15G C68A,6.63e-05 ± 4.7e-06,131 ± 49,–,3.62e-05 ± 9e-06,5.49e-05 ± 1.2e-05,7.32e-05 ± 1.2e-05,6.03e-05 ± 9.3e-06
A15G C68U,0.00322 ± 0.00055,1130 ± 300,0.000128 ± 1.5e-05,0.00032 ± 7.2e-05,0.00112 ± 0.00019,0.00139 ± 0.00047,0.00316 ± 0.00032
A15U U49G,9.5e-05 ± 7.9e-06,1730 ± 470,–,–,2.05e-05 ± 9.2e-06,5.99e-05 ± 8e-06,7.95e-05 ± 8.2e-06
A15U G29C,0.00199 ± 0.00051,2340 ± 910,4.56e-05 ± 9.9e-06,0.000116 ± 3.3e-05,0.000432 ± 7.6e-05,0.000809 ± 0.00016,0.00191 ± 0.0003
A15C C58A,0.000185 ± 2.6e-05,2130 ± 720,–,–,5.17e-05 ± 1.2e-05,8.54e-05 ± 1.6e-05,0.00016 ± 2.1e-05
A15G U31G A39U,0.00331 ± 0.0014,–,3.3e-05 ± 1.1e-05,0.000104 ± 1.8e-05,0.000575 ± 0.00013,0.000869 ± 0.00014,0.00265 ± 0.00042
A15G G37U,1.02e-05 ± 7.1e-07,623 ± 300,< 1e-05,–,–,–,–
A15G C16U,0.00689 ± 0.0016,876 ± 320,0.000403 ± 5.8e-05,0.000875 ± 0.00017,0.00277 ± 0.00047,0.00432 ± 0.00071,0.00798 ± 0.0011
A15U U30C,0.000145 ± 1.2e-05,2410 ± 450,–,–,3.48e-05 ± 6.3e-06,6.99e-05 ± 6.6e-06,0.00012 ± 1.1e-05
A15G C34G C68A,2.44e-05 ± 5.8e-06,–,–,–,–,–,–
A14U A48U,0.000103 ± 7.3e-06,9240 ± 1300,–,–,–,–,5.37e-05 ± 9.7e-06
A15C U65G,0.00172 ± 0.00056,4120 ± 1900,3.62e-05 ± 1.3e-05,4.69e-05 ± 1.1e-05,0.000252 ± 3.6e-05,0.000818 ± 0.00012,0.00111 ± 0.00017
A15C G32A U55A,0.00195 ± 0.00087,–,–,7.61e-05 ± 2.3e-05,0.000233 ± 5.6e-05,0.000416 ± 0.00012,0.00137 ± 0.00022
